B1: MCvar1 PfEMP1 CIDRα2.8 domain (residues 576-745, mutant [Plasmodium falciparum] / human CD36 ectodomain (residues 35-439) with C-terminal BAP tag, biotinylated [modified: biotin on the BAP tag (in vitro, BirA ligase); biotin … (parent)
chain 1: EDKIMSYNAFFWMWVHDMLIDSIKWRDEHGRCINKDKGKTCIKGCNKKCISFQKWVEQKKTEWGKIKDHFRKQKDIPKDWTHDDFLQTLLMKDLLLEIIQDTYGDANEIKRIEALLEQAGVGGIDFAALAGLYTKGFVAEKDTTIDKLLQHEQKEADKCLKTHTDDTCPP
chain 2: QKTIKKQVVLEEGTIAFKNWVKTGTEVYRQFWIFDVQNPQEVMMNSSNIQVKQRGPYTYRVRFLAKENVTQDAEDNTVSFLQPNGAIFEPSLSVGTEADNFTVLNLAVAAASHIYQNQFVQMILNSLINKSKSSMFQVRTLRELLWGYRDPFLSLVPYPVTTTVGLFYPYNNTADGVYKVFNGKDNISKVAIIDTYKGKRNLSYWESHCDMINGTDAASFPPFVEKSQVLQFFSSDICRSIYAVFESDVNLKGIPVYRFVLPSKAFASPVENPDNYCFCTEKIISKNCTSYGVLDISKCKEGRPVYISLPHFLYASPDVSEPIDGLNPNEEEHRTYLDIEPITGFTLQFAKRLQVNLLVKPSEKIQVLKNLKRNYIVPILWLNETGTIGDEKANMFRSQVTGKIN

This assay covers variants of B1. Kind of assay: SPR. Conditions: with human CD36 ectodomain (residues 35-439) with C-terminal BAP tag, plateau of the top sensorgram (highest analyte concentration of the series), concentrations not given, parent: 62, read off a plot.
Turning to chain 1 Q73A, the response is 27 RU.
On to chain 1 E97A, for which the response was determined as 40 RU.
